T1: Nop5_(2)–Fib2 complex from Pyrococcus furiosus (P. furiosus, UniProt Q8U4M1 1-402; Q8U4M2 1-227)
T1 construct: Nop5, Pyrococcus furiosus, full-length, UniProtKB Q8U4M1; fibrillarin, Pyrococcus furiosus, full-length, UniProtKB Q8U4M2; Formed beforehand and then mixed with Snu13 and guide RNA (1:2:1); also called Nop5_(2)–Fib2 tetramer; source: E. coli BL21(DE3), each protein purified; mixed 1:1.1, 15 min at 80 °C, complex purified by size-exclusion chromatography; not shown: His6, N-terminal, cleaved; …
T1 sequence (looked up) 1: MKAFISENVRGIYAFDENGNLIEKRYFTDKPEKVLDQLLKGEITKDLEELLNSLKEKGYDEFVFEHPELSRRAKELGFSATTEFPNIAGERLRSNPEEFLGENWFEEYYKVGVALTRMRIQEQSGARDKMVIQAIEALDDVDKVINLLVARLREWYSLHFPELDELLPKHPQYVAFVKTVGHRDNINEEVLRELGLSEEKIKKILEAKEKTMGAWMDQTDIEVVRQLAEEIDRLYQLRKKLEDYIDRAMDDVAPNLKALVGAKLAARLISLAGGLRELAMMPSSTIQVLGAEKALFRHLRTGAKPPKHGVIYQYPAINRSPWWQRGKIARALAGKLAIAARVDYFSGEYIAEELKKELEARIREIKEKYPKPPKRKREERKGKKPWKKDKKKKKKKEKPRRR
T1 sequence (looked up) 2: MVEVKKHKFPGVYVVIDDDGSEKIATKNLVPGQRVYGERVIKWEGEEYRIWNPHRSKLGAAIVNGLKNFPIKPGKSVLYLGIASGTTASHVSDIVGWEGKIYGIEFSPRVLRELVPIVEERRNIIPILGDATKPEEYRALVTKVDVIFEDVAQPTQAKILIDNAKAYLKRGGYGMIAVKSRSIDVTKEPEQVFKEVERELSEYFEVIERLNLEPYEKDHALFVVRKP

B1: fibrillarin from Pyrococcus furiosus (enzyme, P. furiosus, UniProt Q8U4M2 1-227, looked up)
chain: T1 sequence (looked up) 2
notes: fibrillarin, Pyrococcus furiosus, full-length gene amplified from genomic DNA, UniProtKB Q8U4M2; Cloned into pET-M11 with a TEV-cleavable N-terminal His6-Tag; source: E. coli BL21(DE3), purified (heat step at 80 °C, HisTrap, TEV cleavage, reverse HisTrap); not shown: His6, N-terminal, cleaved
B2: Snu13 from Saccharomyces cerevisiae (natural protein, S. cerevisiae, UniProt P39990 1-126, looked up)
chain: MSAPNPKAFPLADAALTQQILDVVQQAANLRQLKKGANEATKTLNRGISEFIIMAADCEPIEILLHLPLLCEDKNVPYVFVPSRVALGRACGVSRPVIAASITTNDASAIKTQIYAVKDKIETLLI
notes: Snu13, S. cerevisiae, full-length SNU13 gene, codon-optimised synthetic gene, UniProtKB P39990; Cloned into pET-M11 with a TEV-cleavable N-terminal His6-Tag; also called Sc Snu13; source: E. coli BL21 (DE3), purified (HisTrap, QTrap flow-through, TEV cleavage, reverse HisTrap); not shown: His6, N-terminal, cleaved
B3: Nop5 from Pyrococcus furiosus (natural protein, P. furiosus, UniProt Q8U4M1 1-402, looked up)
chain: T1 sequence (looked up) 1
notes: Nop5, Pyrococcus furiosus, full-length gene amplified from genomic DNA, UniProtKB Q8U4M1; Cloned into pET-M11 with a TEV-cleavable N-terminal His6-Tag; also called Nop5_(2) (homodimer); source: E. coli BL21(DE3), purified (heat step at 80 °C, HisTrap, TEV cleavage, reverse HisTrap); not shown: His6, N-terminal, cleaved

Experiments:
[1] = target: B3; experiment: SEC; Nop5 and fibrillarin mixed 1:1.1, 15 min at 80 °C, cooled to room temperature; Superdex S200 Increase 10/300 GL; 20 mM sodium phosphate, 500 mM NaCl, pH 6.6; conditions: both partners purified
[2] = target: T1, Nop5_(2)–Fib2 complex from Pyrococcus …; experiment: SEC-MALS; RNP assembled with archaeal guide RNA sR26, Snu13 and Nop5_(2)–Fib2; Superdex S200 Increase 10/300 GL, miniDawn TREOS, Optilab T-rex; the guide RNA is part of the particle; monomeric and dimeric RNP peaks partially overlapped; conditions: both partners purified
[3] = target: T1, Nop5_(2)–Fib2 complex from Pyrococcus …; experiment: SEC-MALS; RNP assembled with yeast guide RNA snR51, Snu13 and Nop5_(2)–Fib2; Superdex S200 Increase 10/300 GL, miniDawn TREOS, Optilab T-rex; the guide RNA is part of the particle; conditions: both partners purified
[4] = target: the molecule itself; experiment: SEC; Nop5 and fibrillarin mixed 1:1.1, 15 min at 80 °C, cooled to room temperature; Superdex S200 Increase 10/300 GL; 20 mM sodium phosphate, 500 mM NaCl, pH 6.6

Binder: B1
- binding result [1]: binds

Binder: B2
- stoichiometry N [2]: 2 copies per Nop5_(2)–Fib2 tetramer
- stoichiometry N [3]: 1 copies per Nop5_(2)–Fib2 tetramer

Binder: B3
- binding result [4]: binds

Source: paper PMC8413462, “Eukaryotic Box C/D methylation machinery has two non-symmetric protein assembly sites” (Scientific Reports, 2021)
